The values below come from US8465912B2, “Methods for the identification of agents that inhibit mesenchymal-like tumor cells or their formation” (OSI Pharmaceuticals, LLC, priority 2009, dated 2013).

One assay deals with pancreatic cancer. The following applies: in combination with gemcitabine; cited from earlier work.
In assay [1] the test system is advanced, treatment-refractory NSCLC. The following applies: patients with advanced; cited from earlier work.
The test system of another assay is carcinoma cells. The following applies: cited from earlier work.
In assay [2] the test system is H1650 cells. The experiment in a line: qPCR of EMT gene changes in response to ligand treatment. Type of assay: cell-based, human. The note with it: 7 days ligand, qPCR normalized to GAPDH and untreated control. As for the experimental part:
(§1) The human cell line, H1650 was cultured in […] containing 10% FBS, 2 mM L-Glutamine, and 1 mM sodium pyruvate, at 37° C., 5% CO2. Growth factor and cytokine induced EMT was monitored over 7 days. Growth factor and cytokines were obtained from commercial sources and used as follows: HGF (Hepatocyte growth factor) at 100 ng/ml, EGF (Epidermal Growth Factor) at 100 ng/ml, OSM (Oncostatin M) at 100 ng/ml, TGFβ1 (Transforming growth factor, beta 1) at 10 ng/ml, and TNFα (Tumor necrosis factor alpha) at 25 ng/ml.
Cells were plated and treated with ligand for 7 days. At the time of harvest, cells were trypsinized and snap frozen for later use. Total RNA was isolated using RNAqueous-4 PCR Kit (Ambion, AM1914). Samples were DNase treated using the Turbo DNA-Free kit (Ambion, AM1907) and reverse transcribed using Superscript III (Invitrogen, 18080-044) for qPCR analysis. Taqman primers and Locked-Nucleic Acid probes were designed using ProbeFinder software (Universal Probe library, Roche). For mRNA analysis, real time PCR was performed using the ABI 7900HT series PCR machine. Thermocycle conditions were as follows: 50° C. for 2 minutes, 95° C. for 10 minutes, 95° C. for 15 seconds, 50° C. for 10 seconds, 60° C. for 1 minute. Data was collected over 45 cycles and then normalized to GAPDH and further normalized to the untreated control sample.
A general note: Quantitative PCR measures a nucleic acid by following its amplification.

For assay [3], the system named is H1650 cells. The experiment in a line: Induction of EMT by growth factors and cytokines in 2D culture (immunoblot, morphology, confocal). Type of assay: cell-based, human. The note with it: H1650 2D; 7 days; HGF, EGF, OSM 100 ng/ml, TGFβ1 10 ng/ml, TNFα 25 ng/ml. As to the method: as §1
Cells were harvested by washing once with PBS, and lysing on ice for 10 minutes with scraping (using a Cell Lifter, Corning Inc. #3008) in ice cold RIPA buffer (Sigma R0278) containing Protease inhibitor (Sigma P8340), Phosphatase inhibitors (Sigma P2850, P5726) and 200 μM Sodium Vanadate. Supernatents were micro-centrifuged at max speed, 4° C. for 10 minutes. Protein content was quantitated using the BCA method (Pierce #23225) and samples were normalized to total protein in Laemli buffer and heated at 100° C. for 10 minutes. SDS PAGE was run using a Bis-Tris gel system (Invitrogen NuPAGE) with MOPS buffer (Invitrogen NP0001), transferred onto nitrocellulose using the iBLOT system (Invitrogen) and blocked in PBS-T (0.1% Tween 20), 5% non-fat milk or BSA in guidance with primary Ab supplier requirements. All primary antibodies were incubated overnight at 4° C. in PBS-T (0.1% Tween 20) in either 5% non-fat milk or BSA, diluted to the following working dilutions: anti E Cadherin (Santa Cruz #sc-21791) 1:500 dilution; anti Vimentin (BD Biosciences #550513) 1:2000 dilution;); 1:1000 dilution; anti β-Actin (Sigma, A5441) 1:10,000 dilution. Secondary HRP labeled antibodies used were: anti Rabbit IgG HRP (Amersham NA934) 1:5000 dilution; anti Mouse IgG HRP (Sigma A2304) 1:2000 dilution. Membranes were visualized using the Supersignal ELISA Femto Maximum Sensitivity Substrate (Pierce).
Cells were fixed in 4% paraformaldehyde (Electron Microscopy Sciences #15710)/PBS (Gibco#14190) for 10 minutes at room temperature, washed with PBS and permeabilized with 0.1% Triton X100 (Sigma P1379) in PBS for 10 minutes at room temp. Cells were blocked with 3% BSA/PBS for at least 15 minutes then incubated with primary antibody diluted in blocking buffer for a minimum of two hours at room temperature. Anti E-Cadherin was used at a 1:75 dilution and anti Vimentin (Millipore #AB5733) was used at a 1:2000 dilution. Cells were washed, incubated with fluorescently-labeled secondary antibodies for one hour, followed by a 5 minute TO-PRO3 nuclear counterstain (Invitrogen #T3605) at room temperature, washed and mounted on slides with Pro-Long Gold anti-fade reagent (Invitrogen #P36934). Secondary fluorescent antibodies used were: anti mouse 488 nm (Invitrogen #A11029) 1:600 dilution; anti chicken TRITC (Chemicon #AP194R) 1:50 dilution. Stained cells were captured on a Leica DMRXE microscope/SP2 scanner using Leica Confocal Software (LCS).
The ability of cell lines to undergo epithelial to mesenchymal transition (EMT) was investigated using different extracellular ligand drivers. A panel of NSCLC, pancreatic, and breast cancer cell lines were screened by treatment of cells for 7 days in presence of respective ligands, either singly or in combination. Initial screening determined the ability of the ligand to cause morphology change, to down-regulate the epithelial marker, E-cadherin or to up-regulate a mesenchymal marker such as vimentin. Potential EMT cell models should up-regulate a mesenchymal marker and display morphology change. More robust models would show a down-regulation of E-cadherin expression.
Background: Immunoblotting shows a protein as a band on a membrane.

Assay [4] relates to H1650 cells. The experiment in a line: Doubling time of ligand-treated H1650 cells. The format is cell-based, human. The following applies: 7 days ligand, doubling time over following two weeks, versus untreated. As for the experimental part: as §1
Cells were plated and treated with ligand for 7 days. On day 7, cells were counted and re-plated on 6 cm cell culture dishes. On days 3, 5, 7, 10 and 12, cells were trypsinized and counted to determine the total number of cells in the dish, in duplicate. Doubling time was calculated using the multiple time point method on the website www.doubling-time.com.

As for `C#Cc1cccc(Nc2ncnc3cc(OCCOC)c(OCCOC)cc23)c1` [erlotinib, [6,7-bis(2-methoxyethoxy)-4-quinazolin-4-yl]-(3-ethynylphenyl) amine], the “Survival, phase III first-line” value with pancreatic cancer is “improves survival”. Further, the “Clinical outcome, phase III monotherapy” value in assay [1] was “significantly prolonged survival, delayed disease progression and delayed worsening of lung cancer-related symptoms”. Besides, the “Cellular sensitivity after EMT-like transition” value in the assay with carcinoma cells is given as “cellular insensitivity”.

B1: OSM: Oncostatin M, commercial cytokine used at 100 ng/ml (protein, UniProt P13725 26-221, looked up)
Oncostatin-M: AAIGSCSKEYRVLLGQLQKQTDLMQDTSRLLDPYIRIQGLDVPKLREHCRERPGAFPSEETLRGLGRRGFLQTLNATLGCVLHRLADLEQRLPKAQDLERSGLNIEDLEKLQMARPNILGLRNNIYCMAQLLDNSDTAEPTKAGRGASQPPTPTPASDAFQRKLEGCRFLHGYHRFMHSVGRVFSKWGESPNRSRR
For the molecule B1, in the assay on H1650 cells [2], the ACTN1 gene change entry is reported as “NC (Fold changes less than 3 are reported as NC)”, the CDH1 gene change result is “NC (Fold changes less than 3 are reported as NC)”, the CDH2 gene change result was “NC (Fold changes less than 3 are reported as NC)” and the CLDN3 gene change result is “NC (Fold changes less than 3 are reported as NC)”. For the same molecule, in the assay on H1650 cells [2], the ERBB3 gene change result was “NC (Fold changes less than 3 are reported as NC)”, the ITGB3 gene change amounted to 13.25 fold change, the MTA3 gene change entry is listed as “NC (Fold changes less than 3 are reported as NC)” and the OCLN gene change result is “NC (Fold changes less than 3 are reported as NC)”. In the assay with H1650 cells [2], the PLAUR gene change result is given as “NC (Fold changes less than 3 are reported as NC)”, the SNAI1 gene change entry is listed as “NC (Fold changes less than 3 are reported as NC)”, the SNAI2 gene change is 3.44 fold change and the SPARC gene change entry is given as “NC (Fold changes less than 3 are reported as NC)”. Also, in the assay with H1650 cells [2], the TJP3 gene change result is “NC (Fold changes less than 3 are reported as NC)”, the TWIST1 gene change result was “NC (Fold changes less than 3 are reported as NC)”, the VCAN gene change amounted to 3.88 fold change and the VIM gene change stood at 4.18 fold change. In the assay with H1650 cells [2], this molecule registered a ZEB1 gene change of 3.15 fold change and a ZEB2 gene change of 4.43 fold change. Also, in the assay with H1650 cells [3], the “Induction of EMT (E-cadherin, vimentin, morphology)” value is listed as “do not stimulate EMT by themselves”. Moreover, the “Change in doubling time” value with H1650 cells [4] is listed as “modest decrease”.
